According to patent publication US20260069689A1 (Regeneron, published 2026):
Where a chain is given by its changes, count along the chain named.

Assays:
SARS-COV-2 RBD-MMH [1] = biological target: SARS-COV-2 RBD-MMH (SARS-CoV-2); experiment: SPR 37C, run with dissociation at pH 5.0
SARS-COV-2 RBD-MMH [2] = biological target: SARS-COV-2 RBD-MMH (SARS-CoV-2); experiment: SPR 37C
SARS-COV-2 RBD-MMH [3] = biological target: SARS-COV-2 RBD-MMH (SARS-CoV-2); experiment: SPR 37C, run with dissociation at pH 7.4
[4] = biological target: SARS-CoV-2 RBD.mmh (Spike amino acids Arg319-Phe541 with C-terminal myc-myc-6-Histidine tag) (SARS-CoV-2, UniProt P0DTC2 319-541)
[5] = biological target: T1, SARS-COV-2 RBD-MMH (SARS-COV-2 RBD extracellular domain with C-terminal myc-myc-hexahistidine tag) (SARS-CoV-2); experiment: SPR 37C, mAb captured, pH 7.4 vs pH 6.0
[6] = biological target: T1, SARS-COV-2 RBD-MMH (SARS-COV-2 RBD …)

B1: mAb15156 (antibody, V domains shown)
VH: QLQLQESGPGLVKSSETLSLTCTVSASITGSTYYWGWIRQPPGKGLEWIGSIYYSGTTYYKASLKSRVTISVDTSKNQFSLKLTSVTVADTAVYYCVSHLLGNYHKYGMDVWGQGTTVTVSS
VL: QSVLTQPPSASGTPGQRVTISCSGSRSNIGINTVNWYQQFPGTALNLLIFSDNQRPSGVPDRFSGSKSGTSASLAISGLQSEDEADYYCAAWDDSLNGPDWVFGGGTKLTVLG
SARS-COV-2 RBD-MMH [1]
  RBD.mmh Bound at pH 7.4 (RU): 104 RU
  koff: 0.0158 s⁻¹
  t½: 0.7 min
SARS-COV-2 RBD-MMH [2]
  t½ Ratio of pH 7.4 to pH 5.0: 2.3
SARS-COV-2 RBD-MMH [3]
  RBD.mmh Bound at pH 7.4 (RU): 92.6 RU
  koff: 0.00673 s⁻¹

B2: mAb15150 (antibody, V domains shown)
VH: EVQLVETGGGLIQPGGSLRLSCAAPGFIVSSNYMSWVRQAPGKGLEWVSLLYPGGSTYYADSVKGRFTISRDNSKNTLYLQMNSLRADDTAVYYCARVLPIVEDHFDYWGQGTLVTVSS
VL: DIQLTQSPSFLSASVGDRVTITCRASQGMSSYLAWYQKKPGKAPKLLIYGATILQSGVPSRFSGSGSGTEFTLTISSLQPEDFATYYCQQLNSDPLYMYTFGQGTKLEIKR
[4]
  IC50: 0.254 nM
[5]
  t½ Ratio of pH 7.4 to pH 6.0: 0.3
[6]
  koff: 3.81e-05 s⁻¹
  t½ at pH 6.0: 304 min
  t½ at pH 7.4: 103 min

B3: mAb15157 (antibody, V domains shown)
VH: EVQLVESGGALVQPGGSLRLSCAASGFPFTIYAMTWVRQAPGKGLEWVSVITGSGDSTYYADSVKGRFTISRDNSKNTLYLQMNSLRAEDTAVYYCVKTGEGFFYYYYGMDVWGQGTTVTVSS
VL: QSVLTQPPSVSAAPGQKVTISCSGSSSNIGNSYISWYQQLPGTAPKLLIYVNNKRPSGIPDRFSGSKSGTSATLGITGLQTGDEADYYCGTWDSSLSAGVFGSGTKVTVLG
SARS-COV-2 RBD-MMH [1]
  RBD.mmh Bound at pH 7.4 (RU): 108 RU
  koff: 0.00702 s⁻¹
  t½: 1.6 min
SARS-COV-2 RBD-MMH [2]
  t½ Ratio of pH 7.4 to pH 5.0: 1.7
SARS-COV-2 RBD-MMH [3]
  RBD.mmh Bound at pH 7.4 (RU): 106 RU
  koff: 0.00405 s⁻¹

B4: mAb15164 (antibody, V domains shown)
VH: EVQLVESGGGLVQPGGSLRLSCAASGFAVSSNYMTWVRQAPGKGLEWVATIYSGDSTYYADSVKGRFTISRHNSKNTLSLQMNSLRADDTAIYYCARLSGVLSGTYNGAFDIWGQGTMVTVSS
VL: QSALTQPASVSGSPGQSITISCTGTSSDFGNYNIVSWYQQHPGQAPKVMIYEGNKRPSGVSNRFSGSKSGHTASLTISGLQAEDEADYYCSSYAGSSTWVFGGGTKLTVLG
SARS-COV-2 RBD-MMH [1]
  RBD.mmh Bound at pH 7.4 (RU): 159 RU
  koff: 0.002 s⁻¹
  t½: 5.8 min
SARS-COV-2 RBD-MMH [2]
  t½ Ratio of pH 7.4 to pH 5.0: 0.9
SARS-COV-2 RBD-MMH [3]
  RBD.mmh Bound at pH 7.4 (RU): 145 RU
  koff: 0.00226 s⁻¹

B5: mAb15165 (antibody, V domains shown)
VH: EVQLVESGGGLVQPGGSLRLSCAASGFTVSSNYMSWVRQAPGKGLEWVSAIYSGDSTYYADSVKGRFTISKDNSKNTLYLQMNSLRGEDTAVYYCARLGGALQAYDGAFDYWGQGTLATVSS
VL: B4 VL with N31S, I34L, Q44K, V48L, N62I, H71N
SARS-COV-2 RBD-MMH [1]
  RBD.mmh Bound at pH 7.4 (RU): 127 RU
  koff: 0.000973 s⁻¹
  t½: 11.9 min
SARS-COV-2 RBD-MMH [2]
  t½ Ratio of pH 7.4 to pH 5.0: 0.6
SARS-COV-2 RBD-MMH [3]
  RBD.mmh Bound at pH 7.4 (RU): 110 RU
  koff: 0.00164 s⁻¹

B6: mAb15160 (antibody, V domains shown)
VH: EVQLVESGGGLVQPGGSLRLSCSASGFTFSRYAMYWVRQAPGKGLEYVSAISSDGGSTYDADSVKGRFTISRANSKNTLYLQMSSLRAEDTAVYYCVKGLRELLYYYYGMDVWGQGTTVTVSS
VL: DIQMTQSPSSLSASVGDRVTITCRAGQSISSFLNWYQQKPGKAPKLLIYAASSLQSGVPSRFSGSGSGTDFTLTISSLQPEDFATYYCQQSYITPFTFGPGTKVDIKR
SARS-COV-2 RBD-MMH [1]
  RBD.mmh Bound at pH 7.4 (RU): 61.3 RU
  koff: 0.00228 s⁻¹
  t½: 5.1 min
SARS-COV-2 RBD-MMH [2]
  t½ Ratio of pH 7.4 to pH 5.0: 1
SARS-COV-2 RBD-MMH [3]
  RBD.mmh Bound at pH 7.4 (RU): 58.2 RU
  koff: 0.00218 s⁻¹

B7: mAb15151 (antibody, V domains shown)
VH: QVQLVESGGGVVQPGRSLRLSCAASGFVFNSYGMHWVRQAPGKGLEWVAVLWYEGSKNYYADSVKGRFTISRDNSKNTLYLQMNSLRAEDTAVYYCARHGSGSFFGYYLDYWGQGTLVTVSS
VL: DIQMTQSPSSLSASVGDRVTITCRASHNINDFLNWYQQKPGKAPRLLIYAASSLQSGVPSRFSGSGSGTDFTLTISSLQPEDFATYYCQESYTTPPTFGQGTKLEIKR
[4]
  IC50: 0.641 nM
[5]
  t½ Ratio of pH 7.4 to pH 6.0: 0.7
[6]
  koff: 0.00454 s⁻¹
  t½ at pH 6.0: 2.5 min
  t½ at pH 7.4: 1.7 min

B8: mAb15170 (antibody, V domains shown)
VH: EVQLVESGGGLVQPGGSLRLSCAATGITVSSNYMSWVRQAPGKGLEWVSLIYSGGSTFYADSVKGRFTISRHNSKNTLYLQMSSLRAEDTAVYYCARDLVDFGMDVWGQGTTVTVSS
VL: DIQLTQSPSSLSASVGDRVTITCRASQGISNYLAWYQQKPGKAPKLLIYAASTLQSGVPSRFSGSGSGTDFTLTISSLQPEDFGTYYCQQLNSDSPTFGQGTKVEIKR
[4]
  IC50: 0.102 nM
[5]
  t½ Ratio of pH 7.4 to pH 6.0: 0.7
[6]
  koff: 8e-05 s⁻¹
  t½ at pH 6.0: 144 min
  t½ at pH 7.4: 108 min

B9: mAb15159 (antibody, V domains shown)
VH: B8 VH with T25S, S35T, K64R, H72D, S83N, D101V, F102Y
VL: B8 VL with N31S, G84A, Q90H, S95P, P96H, V104L
SARS-COV-2 RBD-MMH [1]
  RBD.mmh Bound at pH 7.4 (RU): 45.5 RU
  koff: 0.000429 s⁻¹
  t½: 27 min
SARS-COV-2 RBD-MMH [2]
  t½ Ratio of pH 7.4 to pH 5.0: 1.9
SARS-COV-2 RBD-MMH [3]
  RBD.mmh Bound at pH 7.4 (RU): 31.9 RU
  koff: 0.000231 s⁻¹

B10: mAb15162 (antibody, V domains shown)
VH: EVQLVETGGGLIQPGGSLRLSCAASEFIVSRNYMSWVRQAPGKGLEWVSLIYSGGSTYYADSVKGRFTISRDNSKNILYLQMNSLRAEDTAVYYCARDRGGISDYWGQGTLVTVSS
VL: DIQMTQSPSSLSASVGDRVTITCQASQDINKYLNWFQQKPGKAPKLLIYDASNLETGVPSRFSGSGSGTDFTFTISSLQPEDIATYYCQQYDNLPRTFGQGTKLEIKR
SARS-COV-2 RBD-MMH [1]
  RBD.mmh Bound at pH 7.4 (RU): 131 RU
  koff: 0.0054 s⁻¹
  t½: 2.1 min
SARS-COV-2 RBD-MMH [2]
  t½ Ratio of pH 7.4 to pH 5.0: 1.8
SARS-COV-2 RBD-MMH [3]
  RBD.mmh Bound at pH 7.4 (RU): 116 RU
  koff: 0.003 s⁻¹

B11: mAb15161 (antibody, V domains shown)
VH: EVQLVESGGGLVQPGGSLRLSCAASGFTFSSYEMNWVRQAPGKGLEWVSYISSSGSILYYADSVKGRFTASRDNAKNSLYLQMNSLRAEDTGVYYCARREYQLLRPFEFWGQGTLVTVSS
VL: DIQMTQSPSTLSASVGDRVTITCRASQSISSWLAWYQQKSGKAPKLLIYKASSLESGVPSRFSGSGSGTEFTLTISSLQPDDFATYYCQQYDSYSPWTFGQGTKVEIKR
SARS-COV-2 RBD-MMH [1]
  RBD.mmh Bound at pH 7.4 (RU): 51.4 RU
  koff: 0.00098 s⁻¹
  t½: 11.8 min
SARS-COV-2 RBD-MMH [2]
  t½ Ratio of pH 7.4 to pH 5.0: 0.9
SARS-COV-2 RBD-MMH [3]
  RBD.mmh Bound at pH 7.4 (RU): 39.8 RU
  koff: 0.00113 s⁻¹

B12: mAb15163 (antibody, V domains shown)
VH: EVQLVETGGGLIQPGESLRLSCAASGFIVSTNYMNWVRQAPGKGLEWVSVIYRGGSTYYADSVKGRFTISRDNSKNTLFLQMNSLRAEDTAVYYCARGHEDFDYDTPASGAFDIWGQGTMVTVSS
VL: QSALTQPPSASGSPGQSVTISCTGTSSDVGGHNYVSWYQQHPGKAPKVMIYEVSKRPSGVPDRFSGSKSGNTASLTVSGLQAEDEADYYCSSYAGSNKFVFGTGTKVTVLG
SARS-COV-2 RBD-MMH [1]
  RBD.mmh Bound at pH 7.4 (RU): 83.2 RU
  koff: 0.00377 s⁻¹
  t½: 3.1 min
SARS-COV-2 RBD-MMH [2]
  t½ Ratio of pH 7.4 to pH 5.0: 7.6
SARS-COV-2 RBD-MMH [3]
  RBD.mmh Bound at pH 7.4 (RU): 81.9 RU
  koff: 0.000494 s⁻¹

B13: mAb15158 (antibody, V domains shown)
VH: EVQLVESGGGLVQPGGSLRLSCAASGFSFSSNWMSWVRQAPGKGLEWVGNINQDGSEKYYVDSVEGRFTISRDNAKKSLYLQMNSLRAEDTAVYYCARDLGVLWFGDFVDWGQGALVTVSS
VL: DIQMTQSPSSLSASVGDRVTITCRASQAISNSLAWYQQKPGKAPKLLLYAASTLESGVPSRFSGSGSGTDYTLTISSLQPEDFATYYCLQYYGSPRTFGQGTKVEIKR
SARS-COV-2 RBD-MMH [1]
  RBD.mmh Bound at pH 7.4 (RU): 122 RU
  koff: 9.7e-05 s⁻¹
  t½: 119 min
SARS-COV-2 RBD-MMH [2]
  t½ Ratio of pH 7.4 to pH 5.0: 0.3
SARS-COV-2 RBD-MMH [3]
  RBD.mmh Bound at pH 7.4 (RU): 111 RU
  koff: 0.00031 s⁻¹
